{
  "source": "patent US6891028",
  "about": "(CEDARS SINAI MEDICAL CENTER, dated 2005)",
  "proteins": {"B1": {"name": "FLAG-tagged TfR2-α (transferrin receptor 2, α form), expressed on transfected CHO-TRVb cells (receptor)", "chain": "MERLWGLFQRAQQLSPRSSQTVYQRVEGPRKGHLEEEEEDGEEGAETLAHFCPMELRGPEPLGSRPRQPNLIPWAAAGRRAAPYLVLTALLIFTGAFLLGYVAFRGSCQACGDSVLVVSEDVNYEPDLDFHQGRLYWSDLQAMFLQFLGEGRLEDTIRQTSLRERVAGSAGMAALTQDIRAALSRQKLDHVWTDTHYVGLQFPDPAHPNTLHWVDEAGKVGEQLPLEDPDVYCPYSAIGNVTGELVYAHYGRPEDLQDLRARGVDPVGRLLLVRVGVISFAQKVTNAQDFGAQGVLIYPEPADFSQDPPKPSLSSQQAVYGHVHLGTGDPYTPGFPSFNQTQFPPVASSGLPSIPAQPISADIASRLLRKLKGPVAPQEWQGSLLGSPYHLGPGPRLRLVVNNHRTSTPINNIFGCIEGRSEPDHYVVIGAQRDAWGPGAAKSAVGTAILLELVRTFSSMVSNGFRPRRSLLFISWDGGDFGSVGSTEWLEGYLSVLHLKAVVYVSLDNAVLGDDKFHAKTSPLLTSLIESVLKQVDSPNHSGQTLYEQVVFTNPSWDAEVIRPLPMDSSAYSFTAFVGVPAVEFSFMEDDQAYPFLHTKEDTYENLHKVLQGRLPAVAQAVAQLAGQLLIRLSHDRLLPLDFGRYGDVVLRHIGNLNEFSGDLKARGLTLQWVYSARGDYIRAAEKLRQEIYSSEERDERLTRMYNVRIMRVEFYFLSQYVSPADSPFRHIFMGRGDHTLGALLDHLRLLRSNSSGTPGATSSTGFQESRFRRQLALLTWTLQGAANALSGDVWNIDNNF", "notes": "The text describes TfR2-α as residues 1-801 (cytoplasmic 1-80, transmembrane 81-104, extracellular 105-801); Expressed from pcDNA3 in TfR-deficient CHO-TRVb cells, both stably and transiently; A disulfide-linked dimer is inferred from the non-reducing immunoblot; also called TfR2 cells; TfR2-α cells; not shown: amino terminal FLAG tag"}},
  "target": "the molecule itself",
  "assay": "anti-FLAG immunoblot of cell lysates, reducing (~105 kDa) against non-reducing (~215 kDa) SDS-PAGE",
  "experimental": "Transfection and Immunoblotting. CHO-TRVb cells were maintained in F12-nutrient mixture (Gibco-BRL) supplemented with 5% fetal bovine serum. An amino terminal FLAG-tagged TfR2-α cDNA was subcloned into pcDNA3 (Invitrogen, Carlsbad, Calif.). This plasmid (100 μg) was transfected into CHO-TRVb cells using Lipofectin (Gibco-BRL). For transient expression, cells were harvested 48 h after the transfection. We also isolated a stably expressing clone using G418 (200 μg/ml) selection and a standard limiting dilution method. The protein expression was confirmed by immunoblotting using anti-FLAG (M5) antibody\nTf-binding to the TfR2-α Transfected Cells. To analyze the function of TfR2-α, we stably transfected CHO-TRVb cells, which lack functional TfR, with FLAG-tagged TfR2-α. FIGS. 6A, 6B and 6C show the expression and functional analysis of TfR2-α protein. In FIG. 6A, Tf-binding to the cell surface was examined in neomycin resistant control CHO-TRVb cells (left panels), FLAG-tagged TfR2-α stably transfected cells (middle) and TRVb-1,TfR stably transfected cells (right). The cells were incubated with 5 μg/ml of biotinylated human holo-Tf in MEM a media for 30 min on ice. After washing with PBS, the cells were incubated with streptavidin-PE, and analyzed by flow cytometry. […] After transferring to a PVDF membrane, FLAG-fusion proteins were detected by immunoblotting. […]",
  "data": [
    {"protein": "B1", "values": [
      {"measurement": "binding result", "result": "binds"}
    ]}
  ]
}
